Assay results: US20260265379A1 (IMCHECK THERAPEUTICS, published 2026)

B1: bsAb025 (bispecific antibody)
heavy: QVQLVQSGVEVKKPGASVKVSCKASGYTFTNYYMYWVRQAPGQGLEWMGGINPSNGGTNFNEKFKNRVTLTTDSSTTTAYMELKSLQFDDTAVYYCARRDYRFDMGFDYWGQGTTVTVSSASTKGPSVFPLAPSSKSTSGGTAALGCLVKDYFPEPVTVSWNSGALTSGVHTFPAVLQSSGLYSLSSVVTVPSSSLGTQTYICNVNHKPSNTKVDKKVEPKSCDKTHTGGSSGSGSGSTGTSSSGTGTSAGTTGTSASTSGSGSGGGGGSGGGGSAGGEIVLTQSPATLSLSPGERATLSCRASKGVSTSGYSYLHWYQQKPGQAPRLLIYLASYLESGVPARFSGSGSGTDFTLTISSLEPEDFAVYYCQHSRDLPLTFGGGTKVEIKRTVAAPSVFIFPPSDEQLKSGTASVVCLLNNFYPREAKVQWKVDNALQSGNSQESVTEQDSKDSTYSLSSTLTLSKADYEKHKVYACEVTHQGLSSPVTKSFNRGECGGGGSGGGGSGGGGSGGGGSQVQLVQSGAEVKKPGASVKLSCKASGYIFTRYYMYWVKQRPGQGLEWIGEINPNNGGTKFNEKFKNRATLTVDKSISTAYMELSRLRSDDTAVYYCSREDDYDGTPFAMDYWGQGTLVTVSSASTKGPSVFPLAPSSKSTSGGTAALGCLVKDYFPEPVTVSWNSGALTSGVHTFPAVLQSSGLYSLSSVVTVPSSSLGTQTYICNVNHKPSNTKVDKRVEPKSCDKTHTCPPCPAPEFEGGPSVFLFPPKPKDTLMISRTPEVTCVVVDVSHEDPEVKFNWYVDGVEVHNAKTKPREEQYNSTYRVVSVLTVLHQDWLNGKEYKCKVSNKALPASIEKTISKAKGQPREPQVYTLPPSREEMTKNQVSLTCLVKGFYPSDIAVEWESNGQPENNYKTTPPVLDSDGSFFLYSKLTVDKSRWQQGNVFSCSVMHEALHNHYTQKSLSLSPG
light: not shown
notes: IgG anti-BTN3A, scFab anti-PD-1
B2: bsAb033 (bispecific antibody)
heavy (part 1 of 2): QVQLVQSGAEVKKPGASVKLSCKASGYIFTRYYMYWVKQRPGQGLEWIGEINPNNGGTKFNEKFKNRATLTVDKSISTAYMELSRLRSDDTAVYYCSREDDYDGTPFAMDYWGQGTLVTVSS
heavy (part 2 of 2): GGGGSGGGGSGGGGSGGGGSQVQLVQSGVEVKKPGASVKVSCKASGYTFTNYYMYWVRQAPGQGLEWMGGINPSNGGTNFNEKFKNRVTLTTDSSTTTAYMELKSLQFDDTAVYYCARRDYRFDMGFDYWGQGTTVTVSSGGGGSGGGGSGGGGSGGGGSEIVLTQSPATLSLSPGERATLSCRASKGVSTSGYSYLHWYQQKPGQAPRLLIYLASYLESGVPARFSGSGSGTDFTLTISSLEPEDFAVYYCQHSRDLPLTFGGGTKVEIK
heavy: B2 heavy (part 1 of 2)
light: not shown
notes: IgG anti-BTN3A, one scFv anti-PD-1; not shown: IgG1 CH1-hinge-CH2-CH3
B3: bsAb047 (bispecific antibody)
heavy 1: EIVLTQSPATLSLSPGERATLSCRASKGVSTSGYSYLHWYQQKPGQAPRLLIYLASYLESGVPARFSGSGSGTDFTLTISSLEPEDFAVYYCQHSRDLPLTFGGGTKVEIKGGGGSGGGGSGGGGSGGGGSQVQLVQSGVEVKKPGASVKVSCKASGYTFTNYYMYWVRQAPGQGLEWMGGINPSNGGTNFNEKFKNRVTLTTDSSTTTAYMELKSLQFDDTAVYYCARRDYRFDMGFDYWGQGTTVTVSSGGGGSGGGGSGGGGSGGGGSQVQLVQSGAEVKKPGASVKLSCKASGYIFTRYYMYWVKQRPGQGLEWIGEINPNNGGTKFNEKFKNRATLTVDKSISTAYMELSRLRSDDTAVYYCSREDDYDGTPFAMDYWGQGTLVTVSS
heavy 2: B2 heavy (part 1 of 2)
light: not shown
notes: as for B2
B4: bsAb049 (bispecific antibody)
heavy 1: QVQLVQSGVEVKKPGASVKVSCKASGYTFTNYYMYWVRQAPGQGLEWMGGINPSNGGTNFNEKFKNRVTLTTDSSTTTAYMELKSLQFDDTAVYYCARRDYRFDMGFDYWGQGTTVTVSSGGGGSGGGGSGGGGSGGGGSEIVLTQSPATLSLSPGERATLSCRASKGVSTSGYSYLHWYQQKPGQAPRLLIYLASYLESGVPARFSGSGSGTDFTLTISSLEPEDFAVYYCQHSRDLPLTFGGGTKVEIKGGGGSGGGGSGGGGSGGGGSQVQLVQSGAEVKKPGASVKLSCKASGYIFTRYYMYWVKQRPGQGLEWIGEINPNNGGTKFNEKFKNRATLTVDKSISTAYMELSRLRSDDTAVYYCSREDDYDGTPFAMDYWGQGTLVTVSS
heavy 2: B2 heavy (part 1 of 2)
light: not shown
notes: as for B2
B5: bsAb038 (bispecific antibody)
heavy (part 1 of 2): B2 heavy (part 1 of 2)
heavy (part 2 of 2): GGGGSGGGGSGGGGSGGGGSEIVLTQSPATLSLSPGERATLSCRASKGVSTSGYSYLHWYQQKPGQAPRLLIYLASYLESGVPARFSGSGSGTDFTLTISSLEPEDFAVYYCQHSRDLPLTFGGGTKVEIKGGGGSGGGGSGGGGSGGGGSQVQLVQSGVEVKKPGASVKVSCKASGYTFTNYYMYWVRQAPGQGLEWMGGINPSNGGTNFNEKFKNRVTLTTDSSTTTAYMELKSLQFDDTAVYYCARRDYRFDMGFDYWGQGTTVTVSS
heavy: B2 heavy (part 1 of 2)
light: not shown
notes: as for B2
B6: bsAb022 (bispecific antibody)
heavy: QVQLVQSGVEVKKPGASVKVSCKASGYTFTNYYMYWVRQAPGQGLEWMGGINPSNGGTNFNEKFKNRVTLTTDSSTTTAYMELKSLQFDDTAVYYCARRDYRFDMGFDYWGQGTTVTVSSGGGGSGGGGSGGGGSGGGGSEIVLTQSPATLSLSPGERATLSCRASKGVSTSGYSYLHWYQQKPGQAPRLLIYLASYLESGVPARFSGSGSGTDFTLTISSLEPEDFAVYYCQHSRDLPLTFGGGTKVEIKGGGGSGGGGSGGGGSGGGGSQVQLVQSGAEVKKPGASVKLSCKASGYIFTRYYMYWVKQRPGQGLEWIGEINPNNGGTKFNEKFKNRATLTVDKSISTAYMELSRLRSDDTAVYYCSREDDYDGTPFAMDYWGQGTLVTVSSASTKGPSVFPLAPSSKSTSGGTAALGCLVKDYFPEPVTVSWNSGALTSGVHTFPAVLQSSGLYSLSSVVTVPSSSLGTQTYICNVNHKPSNTKVDKRVEPKSCDKTHTCPPCPAPEFEGGPSVFLFPPKPKDTLMISRTPEVTCVVVDVSHEDPEVKFNWYVDGVEVHNAKTKPREEQYNSTYRVVSVLTVLHQDWLNGKEYKCKVSNKALPASIEKTISKAKGQPREPQVYTLPPSREEMTKNQVSLTCLVKGFYPSDIAVEWESNGQPENNYKTTPPVLDSDGSFFLYSKLTVDKSRWQQGNVFSCSVMHEALHNHYTQKSLSLSPG
light: not shown
notes: IgG anti-BTN3A, scFv anti-PD-1
B7: bsAb053 (bispecific antibody)
heavy (part 1 of 2): QVQLVQSGVEVKKPGASVKVSCKASGYTFTNYYMYWVRQAPGQGLEWMGGINPSNGGTNFNEKFKNRVTLTTDSSTTTAYMELKSLQFDDTAVYYCARRDYRFDMGFDYWGQGTTVTVSS
heavy (part 2 of 2): GGGGSGGGGSGGGGSGGGGSQVQLVQSGAEVKKPGASVKLSCKASGYIFTRYYMYWVKQRPGQGLEWIGEINPNNGGTKFNEKFKNRATLTVDKSISTAYMELSRLRSDDTAVYYCSREDDYDGTPFAMDYWGQGTLVTVSSGGGGSGGGGSGGGGSGGGGSDIQMTQSPSSLSASVGDRVTITCHASQNINVWLSWYQQKPGKAPKLLIYKASNLHTGVPSRFTGSGSGTDFTFTISSLQPEDIATYYCQQGQTYPYTFGQGTKLEIK
heavy: B7 heavy (part 1 of 2)
light: EIVLTQSPATLSLSPGERATLSCRASKGVSTSGYSYLHWYQQKPGQAPRLLIYLASYLESGVPARFSGSGSGTDFTLTISSLEPEDFAVYYCQHSRDLPLTFGGGTKVEIKRTVAAPSVFIFPPSDEQLKSGTASVVCLLNNFYPREAKVQWKVDNALQSGNSQESVTEQDSKDSTYSLSSTLTLSKADYEKHKVYACEVTHQGLSSPVTKSFNRGEC
notes: IgG anti-PD-1, one scFv anti-BTN3A; not shown: IgG1 CH1-hinge-CH2-CH3

These binders were tested against T1, BTN3A1 at the surface of HEK-BTN3A1 cells (human, UniProt O00481 30-513) (assay: flow cytometry, HEK-BTN3A1 cells).
T1 construct: HEK 293T BTN2A/BTN3A KO cells transduced with a BTN3A1 expressing vector
T1 sequence (O00481 30-513 limits assumed): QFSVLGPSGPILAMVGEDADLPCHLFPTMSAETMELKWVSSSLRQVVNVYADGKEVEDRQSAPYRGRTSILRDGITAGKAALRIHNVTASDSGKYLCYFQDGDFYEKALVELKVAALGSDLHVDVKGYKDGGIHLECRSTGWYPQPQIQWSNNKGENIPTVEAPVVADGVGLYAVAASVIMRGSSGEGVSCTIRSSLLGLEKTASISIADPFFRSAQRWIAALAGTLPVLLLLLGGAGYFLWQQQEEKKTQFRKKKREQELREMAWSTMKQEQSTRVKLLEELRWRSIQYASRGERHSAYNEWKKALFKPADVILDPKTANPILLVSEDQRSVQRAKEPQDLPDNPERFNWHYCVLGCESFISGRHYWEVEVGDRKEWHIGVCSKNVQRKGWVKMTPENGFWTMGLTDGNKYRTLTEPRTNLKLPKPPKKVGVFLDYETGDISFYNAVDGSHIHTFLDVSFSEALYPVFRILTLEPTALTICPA

MFI at 10 nM [MFI] | MFI at 100 nM [MFI] | Binder
177000 | 669000 | B1
584000 | 1.18e+06 | B2
536000 | 866000 | B3
460000 | 740000 | B4
588000 | 1.2e+06 | B5
224000 | 992000 | B6
494000 | 1.24e+06 | B7

The binders below were run against T2, recombinant human BTN3A1 (human, UniProt O00481 30-254) (assay: SPR).
T2 construct: Soluble form of the antigen used in SPR; also called rhBTN3A1; recombinant BTN3A1 protein
T2 sequence (O00481 30-254 limits assumed): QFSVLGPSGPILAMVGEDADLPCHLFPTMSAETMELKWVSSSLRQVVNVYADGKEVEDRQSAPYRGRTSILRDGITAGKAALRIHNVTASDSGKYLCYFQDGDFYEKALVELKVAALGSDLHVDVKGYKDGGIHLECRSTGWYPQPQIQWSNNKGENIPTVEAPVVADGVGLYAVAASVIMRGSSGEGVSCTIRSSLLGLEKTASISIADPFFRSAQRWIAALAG
Procedure: (§1) SPR measures the interactions between two or more biomolecules. In capture kinetics analysis, an antibody is immobilized onto a gold-plated prism. The immobilized antibody is referred to as the ligand. An injection of antigen, referred to as the analyte, is carried out, often as a concentration series. The captured analytes are removed from the sensor chip surface using a regenerating agent, for example a low pH or high ionic strength solution. If investigating binding to several analytes, the antibodies are recaptured from solution before each analyte titration series. The instrument records the changes in refractive indexes (due to the accumulation or depletion of mass) in time and plots the results as sensorgrams.
(§2) Affinity measurements with respect to BTN3A, PD-1 and PD-L1 were performed by SPR technology, for instance in a Carterra LSA Platform instrument using a soluble form of the antigen as the analyte and the antibody as the ligand. Binding was also assessed through in cellulo binding assays, on cell lines (e.g. HEK293T cells) genetically modified to express the targets of interest or genetically modified to extinct target expression.
(§3) The 69 produced bsAbs and control mAbs were also evaluated for their binding affinity to recombinant proteins by SPR assays. The equilibrium dissociation constant (KD) was then calculated for constructs showing detectable binding.

Kd [nM] | Binder
0.154 | B1
0.067 | B2
0.168 | B3
0.101 | B4
0.071 | B5
0.163 | B6
0.393 | B7

The binders below were run against T3, recombinant human PD-1 (human, UniProt Q15116 25-167, limits assumed) (assay: SPR).
T3 construct: Soluble antigen in SPR; also called rhPD-1
T3 sequence (Q15116 25-167 limits assumed): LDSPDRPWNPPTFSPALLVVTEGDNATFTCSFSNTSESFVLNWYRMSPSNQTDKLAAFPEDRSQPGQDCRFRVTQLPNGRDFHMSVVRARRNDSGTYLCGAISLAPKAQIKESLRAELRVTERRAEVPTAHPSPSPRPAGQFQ
Procedure: as §1, §2, §3

Kd [nM] | Binder
1.1 | B1
0.786 | B2
1.4 | B3
0.856 | B4
1.9 | B5
0.928 | B6
0.984 | B7

What follows are binders tested against T4, PD-1 at the surface of Jurkat-PD-1 cells (human, UniProt Q15116 25-288) (assay: flow cytometry, Jurkat-PD-1 cells).
T4 construct: whole, on cells
T4 sequence (Q15116 25-288): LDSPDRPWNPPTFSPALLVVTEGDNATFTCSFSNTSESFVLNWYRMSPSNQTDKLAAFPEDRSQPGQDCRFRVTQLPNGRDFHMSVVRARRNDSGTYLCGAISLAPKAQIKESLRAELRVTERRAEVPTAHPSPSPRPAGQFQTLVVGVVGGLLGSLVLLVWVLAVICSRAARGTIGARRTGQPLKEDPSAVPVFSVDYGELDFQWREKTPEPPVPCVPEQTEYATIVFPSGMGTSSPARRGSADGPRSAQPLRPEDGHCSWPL

MFI at 10 nM [MFI] | MFI at 100 nM [MFI] | Binder
110000 | 358000 | B1
194000 | 340000 | B2
264000 | 364000 | B3
175000 | 376000 | B4
160000 | 294000 | B5
216000 | 367000 | B6
187000 | 424000 | B7

The binders below were run against T4, PD-1 at the surface of Jurkat-PD-1 cells (assay: cell-based or functional assay).

Jurkat-PD-1 activation at 10 nM | Jurkat-PD-1 activation at 100 nM | Binder
1.6 fold-change to medium | 6 fold-change to medium | B2
3.1 fold-change to medium | 8.3 fold-change to medium | B3
1.3 fold-change to medium | 2.3 fold-change to medium | B4
1.5 fold-change to medium | 3.5 fold-change to medium | B5
